From US20230058519A1 (SHANGHAI CELL THERAPY GROUP, published 2023)

Assays:
[1] = biological target: T1, MSLN II + III - Fc (Homo sapiens (Human), UniProt Q13421 391-598); assay: SPR, MSLN domain-Fc captured on protein A chip, M2339 VHH-6his as analyte, 1:1 fit
T1 construct: also called mesothelinII+III; mesothelinII+III domain; not shown: human Fc
Experimental: (§1) Affinity was determined by SPR. Protein A chip was used to capture different antigens, various concentrations of M2339(VHH) were injected at a flow rate of 10 μl/min with an association time of 120 to 180 seconds and a dissociation time from 180 to 1200 seconds. Binding kinetics were determined using Biacore Evaluation software in a 1:1 fit model.

[2] = biological target: T2, MSLN I - Fc (UniProt Q13421 296-390, limits assumed); assay: as above
T2 construct: domain: MSLN I; also called mesothelinI; not shown: human Fc
T2 sequence (Q13421 296-390 limits assumed): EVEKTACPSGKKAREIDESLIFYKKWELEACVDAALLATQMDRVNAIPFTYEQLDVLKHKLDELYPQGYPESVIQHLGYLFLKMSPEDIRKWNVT
Experimental: as §1

[3] = biological target: T3, MSLN Full - Fc (UniProt Q13421 296-598, limits assumed); assay: as above
T3 construct: domain: MSLN Full (mesothelin ECD); also called mesothelin-full; complete mesothelin polypeptide; not shown: human Fc
T3 sequence (Q13421 other isoform, or with tags, fused parts or gaps limits assumed): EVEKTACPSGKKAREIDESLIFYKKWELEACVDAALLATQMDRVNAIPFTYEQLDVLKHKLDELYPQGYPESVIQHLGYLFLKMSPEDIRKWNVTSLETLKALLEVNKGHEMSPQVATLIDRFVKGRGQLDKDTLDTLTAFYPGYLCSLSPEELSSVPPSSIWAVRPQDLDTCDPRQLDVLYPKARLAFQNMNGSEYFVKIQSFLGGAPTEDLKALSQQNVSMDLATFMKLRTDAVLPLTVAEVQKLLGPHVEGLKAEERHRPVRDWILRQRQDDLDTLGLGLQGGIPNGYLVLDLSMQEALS
Experimental: as §1

[4] = biological target: T4, MSLN II - Fc (UniProt Q13421 391-486, limits assumed); assay: as above
T4 construct: domain: MSLN II; not shown: human Fc
T4 sequence (Q13421 other isoform, or with tags, fused parts or gaps limits assumed): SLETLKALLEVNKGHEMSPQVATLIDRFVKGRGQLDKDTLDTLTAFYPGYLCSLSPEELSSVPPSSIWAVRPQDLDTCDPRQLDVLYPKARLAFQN
Experimental: as §1

[5] = biological target: T5, MSLN III - Fc (UniProt Q13421 487-598, limits assumed); assay: as above
T5 construct: domain: MSLN III; not shown: human Fc
T5 sequence (Q13421 495-606 limits assumed): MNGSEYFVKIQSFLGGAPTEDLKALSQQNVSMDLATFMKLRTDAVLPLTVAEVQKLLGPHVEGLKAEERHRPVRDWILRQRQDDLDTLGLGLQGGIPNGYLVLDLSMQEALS
Experimental: as §1

[6] = biological target: T6, MSLN I + II - Fc (UniProt Q13421 296-486, limits assumed); assay: as above
T6 construct: domain: MSLN I + II; not shown: human Fc
T6 sequence (Q13421 other isoform, or with tags, fused parts or gaps limits assumed): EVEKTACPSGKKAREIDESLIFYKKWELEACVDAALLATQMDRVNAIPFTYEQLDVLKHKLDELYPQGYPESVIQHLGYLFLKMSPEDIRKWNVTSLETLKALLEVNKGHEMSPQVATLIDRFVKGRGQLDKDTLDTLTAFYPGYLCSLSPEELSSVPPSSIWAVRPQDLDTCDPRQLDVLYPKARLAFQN
Experimental: as §1

[7] = biological target: mesothelin (MSLN) expressed on cells (UniProt Q13421); assay: flow cytometry on HEK293T-MSLN cells, serial dilution, anti-human IgG PE detection
[8] = biological target: T7, MSLN-His antigen (UniProt Q13421 296-580, limits assumed); assay: SPR (Biacore), VHH-hFc captured on protein A chip, MSLN-His as analyte
T7 construct: also called MSLN-His protein; MSLN antigen
T7 sequence (Q13421 other isoform, or with tags, fused parts or gaps limits assumed): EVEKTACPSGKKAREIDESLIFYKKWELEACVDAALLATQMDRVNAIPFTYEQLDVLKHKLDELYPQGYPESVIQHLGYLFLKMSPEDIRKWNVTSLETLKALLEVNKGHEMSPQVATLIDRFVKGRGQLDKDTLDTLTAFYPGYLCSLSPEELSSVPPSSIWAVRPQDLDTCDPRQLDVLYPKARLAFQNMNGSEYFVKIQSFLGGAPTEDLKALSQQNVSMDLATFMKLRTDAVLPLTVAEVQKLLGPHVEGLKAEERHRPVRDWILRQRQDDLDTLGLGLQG
Experimental: The antibody was expressed as a hFc fusion protein, named as M2339(VHH) with the procedure that was described in the patent publication WO2020176815A2 (hereby incorporated by reference in its entirety and for all purposes). The binding affinity of M2339(VHH) towards MSLN antigen was tested by surface plasmon resonance (SPR). First, M2339(VHH) was passed through the sensor chip with protein A immobilized in advance, and the antibody was captured by protein A. Then, five different concentrations of MSLN-His protein were used as the mobile phase, and the binding time and dissociation time were 30 min and 60 min, respectively. Biacore evaluation software 2.0 (GE) was used to analyze the on-rate (kₒₙ), off-rate (koff) and equilibrium constant (KD).

[9] = biological target: T7, MSLN-His antigen; assay: SPR as in Example 2, MSLN His antigen
[10] = biological target: mesothelin (MSLN) expressed on cells (UniProt Q13421); assay: flow cytometry on HEK293T-MSLN cells, serial dilution
[11] = biological target: T8, BCMA-His antigen (UniProt Q02223 1-54); assay: SPR, BCMA-his coupled on CM5 chip, TCP as analyte, 1:1 fit
T8 construct: also called BMCA antigen
T8 sequence (looked up): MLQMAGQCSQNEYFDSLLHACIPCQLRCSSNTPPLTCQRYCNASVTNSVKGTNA
Experimental: First the binding affinity of the purified BCMA-TCPs against BMCA antigen was assessed by SPR. BCMA-his antigen was coupled onto a CM5 chip (GE Healthcare Life Sciences), and then a variety of anti-BCMA BsAbs were flowed at the flow rate of 10 uL/min with dissociation time of 900s. Binding kinetics were determined with a 1:1 fit model.

[12] = biological target: mesothelin (MSLN) expressed on cells (UniProt Q13421); assay: flow cytometry on 293T-MSLN+ cells; unit taken from the axis 'Conc.(nM)'
[13] = biological target: T9, BCMA expressed on cells (UniProt Q02223 1-184, limits assumed); assay: flow cytometry on CHOK1-BCMA+ cells; unit taken from the axis 'Conc.(nM)'
T9 construct: whole, on cells; also called CHOK1-BCMA cell line; BCMA over-expression cell line
T9 sequence (looked up): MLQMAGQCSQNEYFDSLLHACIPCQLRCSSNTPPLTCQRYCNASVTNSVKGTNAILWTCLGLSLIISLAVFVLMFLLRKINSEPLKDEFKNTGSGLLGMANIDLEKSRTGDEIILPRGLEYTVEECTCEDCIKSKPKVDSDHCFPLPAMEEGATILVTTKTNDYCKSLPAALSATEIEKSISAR
Experimental: The binding bioactivity for mesothelin and BCMA over-expressing cells was evaluated by flow cytometry. Stable cell lines were harvested using 0.25% Trypsin.
About 5E5 cells were collected per sample, and the cells were resuspended in 100 μL/well tested antibodies with His-tag. Then the cells were incubated with anti-His-tag antibody (Genscript, China) and Streptavidin-PE (Biolegend, China). The incubation step of each step was performed at 4° C. in the dark for 1 hr, and then the cells were washed 2× with 200 μL PBS buffer. The washed cells were resuspended in 200 μL PBS buffer and the sample was analyzed by FACS.

[14] = biological target: T10, CD19 expressed on cells (UniProt P15391 20-556, limits assumed); assay: flow cytometry on CHO/K1-CD19 cells; unit taken from the axis 'Conc.(nM)'; the curve is still rising at the last point (MFI about 5000 at about 400 nM)
T10 construct: whole, on cells; also called CD19 over-expression cell line; CD19 over-expressing cells
T10 sequence (looked up): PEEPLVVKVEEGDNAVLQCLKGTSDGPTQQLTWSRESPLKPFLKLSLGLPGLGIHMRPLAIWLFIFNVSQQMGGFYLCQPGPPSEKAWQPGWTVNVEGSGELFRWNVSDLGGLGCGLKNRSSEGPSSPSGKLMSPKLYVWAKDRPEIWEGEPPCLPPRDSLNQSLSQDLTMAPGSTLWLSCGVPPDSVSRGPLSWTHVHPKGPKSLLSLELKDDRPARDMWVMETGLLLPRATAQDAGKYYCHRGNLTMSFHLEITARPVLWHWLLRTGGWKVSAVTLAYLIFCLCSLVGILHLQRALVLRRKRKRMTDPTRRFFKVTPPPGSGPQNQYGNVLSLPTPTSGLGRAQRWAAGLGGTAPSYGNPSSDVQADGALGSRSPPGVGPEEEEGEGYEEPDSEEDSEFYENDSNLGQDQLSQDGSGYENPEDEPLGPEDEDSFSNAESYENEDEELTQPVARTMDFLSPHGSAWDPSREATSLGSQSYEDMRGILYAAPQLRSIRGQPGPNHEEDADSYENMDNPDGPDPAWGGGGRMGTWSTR

[15] = biological target: mesothelin (MSLN) expressed on cells (UniProt Q13421); assay: flow cytometry on 293T-MSLN-Full cells; unit taken from the axis 'Conc.(nM)'

T1 sequence (Q13421 other isoform, or with tags, fused parts or gaps limits assumed): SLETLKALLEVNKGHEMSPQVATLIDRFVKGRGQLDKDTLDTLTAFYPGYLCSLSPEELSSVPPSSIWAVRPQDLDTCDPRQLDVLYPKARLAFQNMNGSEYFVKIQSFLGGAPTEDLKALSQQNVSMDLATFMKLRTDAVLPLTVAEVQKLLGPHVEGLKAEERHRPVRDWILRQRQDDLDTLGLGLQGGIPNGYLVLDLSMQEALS

B1: M2339 VHH-6his (VHH)
VHH: QLQLGASGGGLVQPGGSLRLSCALSGFTLRELDEFAIGWFRQAPGKEREGVSCISGTGGITHYADSVKGRFTISRDIAKTTVYLQMNSLNSEDTAVYYCAADERCTDRLIRPPTYWGQGTQVTVSS
notes: not shown: 6xHis tag
- Kd [1]: 0.0432 nM
- koff [1]: 1.96e-05 s⁻¹
- kon [1]: 454000 M⁻¹ s⁻¹
- Kd [2]: 0.179 nM
- koff [2]: 6.49e-05 s⁻¹
- kon [2]: 363000 M⁻¹ s⁻¹
- Kd [3]: 0.0165 nM
- koff [3]: 1.36e-05 s⁻¹
- kon [3]: 823000 M⁻¹ s⁻¹
- Kd [4]: 0.999 nM
- koff [4]: 0.000244 s⁻¹
- kon [4]: 244000 M⁻¹ s⁻¹
- Kd [5]: 0.327 nM
- koff [5]: 0.000185 s⁻¹
- kon [5]: 566000 M⁻¹ s⁻¹
- Kd [6]: 0.366 nM
- koff [6]: 0.000174 s⁻¹
- kon [6]: 476000 M⁻¹ s⁻¹

B2: M2339(VHH), expressed as a hFc fusion protein (Fc fusion)
chain: QLQLGASGGGLVQPGGSLRLSCALSGFTLRELDEFAIGWFRQAPGKEREGVSCISGTGGITHYADSVKGRFTISRDIAKTTVYLQMNSLNSEDTAVYYCAADERCTDRLIRPPTYWGQGTQVTVSS
notes: VHH fused to human Fc; also called M2339-hFc; M2339-IgG1; not shown: human Fc (hFc)
- EC50 (read off the curve) [7]: 4 nM
- Kd [8]: 0.264 nM
- koff [8]: 1.82e-05 s⁻¹
- kon [8]: 69000 M⁻¹ s⁻¹

B3: anti-MSLN-1444 VHH (Fc fusion, not shown: a dimerising Fc or GST)
chain: QVQVVESGGGFVQAGGSLRLSCAASTPIISIAYMGWYRQISEKERQLVATINSGGKTYYADSVKGRFTISRDNAKNTLYLQMNMLKPEDTGMYYCAASNKDYNDYDPDWGQGTQVTVSS
- Kd [9]: 2.1 nM
- koff [9]: 7.5e-05 s⁻¹
- kon [9]: 53700 M⁻¹ s⁻¹
- EC50 (read off the curve) [10]: 10 nM

B4: TCP001-C (bispecific antibody)
chain: QLQLGASGGGLVQPGGSLRLSCALSGFTLRELDEFAIGWFRQAPGKEREGVSCISGTGGITHYADSVKGRFTISRDIAKTTVYLQMNSLNSEDTAVYYCAADERCTDRLIRPPTYWGQGTQVTVSSGGGGSGGGGSGGGGSQVQLVESGGGLVQPGGSLRLSCAASGSITSIYAIGWYRQAPGKLRELVAAITTSGNTFYRDSVKGRFTISRDNAKNTVSLQMNSLKSEDTAVYDCNGAPWGDHAPLVVSWDQGTQVTVSSGGGGSEQKLISEEDLGGGGSHHHHHH
notes: also called BCMA-TCP
- Kd [11]: 0.587 nM
- koff [11]: 0.000518 s⁻¹
- kon [11]: 882000 M⁻¹ s⁻¹
- EC50 [12]: 13.4 nM
- EC50 [13]: 17.6 nM

B5: TCP011-P (bispecific antibody)
chain: QLQLGASGGGLVQPGGSLRLSCALSGFTLRELDEFAIGWFRQAPGKEREGVSCISGTGGITHYADSVKGRFTISRDIAKTTVYLQMNSLNSEDTAVYYCAADERCTDRLIRPPTYWGQGTQVTVSSGGGGSGGGGSGGGGSDIQMTQTTSSLSASLGDRVTISCRASQDISKYLNWYQQKPDGTVKLLIYHTSRLHSGVPSRFSGSGSGTDYSLTISNLEQEDIATYFCQQGNTLPYTFGGGTKLEITKAGGGGSGGGGSGGGGSEVKLQESGPGLVAPSQSLSVTCTVSGVSLPDYGVSWIRQPPRKGLEWLGVIWGSETTYYNSALKSRLTIIKDNSKSQVFLKMNSLQTDDTAIYYCAKHYYYGGSYAMDYWGQGTSVTVSSGGGGSEQKLISEEDLGGGGSHHHHHH
notes: also called CD19-TCP; anti-M-ICAP VHH (M2339) - 3xGGGGS linker - anti-CD19 scFv (FMC063) - Myc and HIS
- EC50 [14]: 40.9 nM
- EC50 [15]: 17.1 nM
